# Measurements reported in publication PMC4989188, “Identification and characterization of chromosomal relBE toxin-antitoxin locus in Streptomyces cattleya DSM46488” (Scientific Reports, 2016).
# T1: RelE2sca-His6 toxin (SCATT_39270) of Streptomyces cattleya DSM 46488 (Streptomyces cattleya DSM 46488, UniProt F8K3H9 1-87)
# T1 construct: also called toxin RelE2sca; not shown: His6, N-terminal, kept
# T1 sequence (looked up): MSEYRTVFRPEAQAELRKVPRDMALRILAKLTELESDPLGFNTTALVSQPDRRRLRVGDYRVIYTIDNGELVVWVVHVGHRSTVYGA
# B1: RelB2sca antitoxin (SCATT_39280) of Streptomyces cattleya DSM 46488 (natural protein, UniProt G8WSR4 1-89, looked up)
# chain: MTQPLPMESIRDVRAHLAEVVERADRDDVPTVITRRGKQVAAVVSIEVLRKYQEWEEREINRIIDERMANPTPGVPIEDIMRETLARSE
# notes: Untagged in the co-purification; Copies 2 are those in the 2:2 complex with RelE2sca-His6; In the functional row the protein was expressed from pBAD-relB2sca-relEeco in E. coli MGJ5987; also called antitoxin RelB2sca; RelBsca; source: E. coli BL21(DE3), co-expressed with RelE2sca-His6 from pACYC-relB2sca-relE2scahis, co-purified on NTA-Ni resin
# Molecular target: T1, RelE2sca-His6 toxin (SCATT_39270) of …
# Assay: SEC
# Details: both partners purified
binder,measurement,value
B1,stoichiometry N,1 RelB2sca per RelE2sca-His6 (printed as 2:2)
